Source: patent publication US20200270325A1 (Merck Sharp & Dohme, published 2020)
Numbered stars: 1 amine (or outer) side, 2 acyl side, 3 side chain; on linkers, the order of the positions; unused ones are H or OH. Square brackets hold non-standard residues; d marks the D form. Side chains are listed from the residue outwards. Ends that are not written are not given here. * marks the point of attachment. Phe(4-CH2NH2) = NCc1ccc(C[C@H](N)C(=O)O)cc1; C18 diacid = O=C(O)CCCCCCCCCCCCCCCCC(=O)*; C16 diacid = O=C(O)CCCCCCCCCCCCCCC(=O)*; γGlu = O=C(O)[C@H](CCC(=O)[*:2])N[*:1]; Met(O2) = CS(=O)(=O)CC[C@H](N)C(=O)O; αMeD = C[C@](N)(CC(=O)O)C(=O)O; AEEA = NCCOCCOCC(=O)O; Aib = CC(C)(N)C(=O)O

Experiments:
[1] = target: human GLP-1 receptor (GLP1R) (human, UniProt P43220 24-463); assay: cell-based or functional assay
[2] = target: human Glucagon receptor (GCGR) (human, UniProt P47871 26-477); assay: cell-based or functional assay
Sequence of human Glucagon receptor (GCGR) (P47871 26-477): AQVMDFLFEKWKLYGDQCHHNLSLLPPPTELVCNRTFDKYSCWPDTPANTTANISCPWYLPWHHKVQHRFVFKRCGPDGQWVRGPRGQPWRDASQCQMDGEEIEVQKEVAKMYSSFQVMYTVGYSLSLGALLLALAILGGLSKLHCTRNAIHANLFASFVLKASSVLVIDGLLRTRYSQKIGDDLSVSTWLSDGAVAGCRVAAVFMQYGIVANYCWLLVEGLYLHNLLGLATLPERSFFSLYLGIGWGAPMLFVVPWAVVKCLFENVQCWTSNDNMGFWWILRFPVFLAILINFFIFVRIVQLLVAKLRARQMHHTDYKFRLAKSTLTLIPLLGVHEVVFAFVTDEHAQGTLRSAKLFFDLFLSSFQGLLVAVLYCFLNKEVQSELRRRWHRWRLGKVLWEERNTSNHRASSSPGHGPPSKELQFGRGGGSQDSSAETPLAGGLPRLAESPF

B1: TP673 (peptide)
peptide: H[Aib]QGTFTSDYSKYLD[Aib]RAAK([AEEA-AEEA-γGlu-C18 diacid])DFVQWL[Met(O2)]ET-NH2
modifications: N-terminus assumed
SMILES: CC(C)C[C@H](NC(=O)[C@H](Cc1c[nH]c2ccccc12)NC(=O)[C@H](CCC(N)=O)NC(=O)[C@@H](NC(=O)[C@H](Cc1ccccc1)NC(=O)[C@H](CC(=O)O)NC(=O)[C@H](CCCCNC(=O)COCCOCCNC(=O)COCCOCCNC(=O)CC[C@H](NC(=O)CCCCCCCCCCCCCCCCC(=O)O)C(=O)O)NC(=O)[C@H](C)NC(=O)[C@H](C)NC(=O)[C@H](CCCNC(=N)N)NC(=O)C(C)(C)NC(=O)[C@H](CC(=O)O)NC(=O)[C@H](CC(C)C)NC(=O)[C@H](Cc1ccc(O)cc1)NC(=O)[C@H](CCCCN)NC(=O)[C@H](CO)NC(=O)[C@H](Cc1ccc(O)cc1)NC(=O)[C@H](CC(=O)O)NC(=O)[C@H](CO)NC(=O)[C@@H](NC(=O)[C@H](Cc1ccccc1)NC(=O)[C@@H](NC(=O)CNC(=O)[C@H](CCC(N)=O)NC(=O)C(C)(C)NC(=O)[C@@H](N)Cc1c[nH]cn1)[C@@H](C)O)[C@@H](C)O)C(C)C)C(=O)N[C@@H](CCS(C)(=O)=O)C(=O)N[C@@H](CCC(=O)O)C(=O)N[C@H](C(N)=O)[C@@H](C)O
GLP1R EC50 human [1]: 0.67 nM
GCGR EC50 human [2]: 0.22 nM

B2: TP674 (peptide)
peptide: H[Aib]QGTFTSDYSKYLEARAAK([AEEA-AEEA-γGlu-C18 diacid])DFVQWL[Met(O2)]DT-NH2
modifications: N-terminus assumed
SMILES: CC(C)C[C@H](NC(=O)[C@H](Cc1ccc(O)cc1)NC(=O)[C@H](CCCCN)NC(=O)[C@H](CO)NC(=O)[C@H](Cc1ccc(O)cc1)NC(=O)[C@H](CC(=O)O)NC(=O)[C@H](CO)NC(=O)[C@@H](NC(=O)[C@H](Cc1ccccc1)NC(=O)[C@@H](NC(=O)CNC(=O)[C@H](CCC(N)=O)NC(=O)C(C)(C)NC(=O)[C@@H](N)Cc1c[nH]cn1)[C@@H](C)O)[C@@H](C)O)C(=O)N[C@@H](CCC(=O)O)C(=O)N[C@@H](C)C(=O)N[C@@H](CCCNC(=N)N)C(=O)N[C@@H](C)C(=O)N[C@@H](C)C(=O)N[C@@H](CCCCNC(=O)COCCOCCNC(=O)COCCOCCNC(=O)CC[C@H](NC(=O)CCCCCCCCCCCCCCCCC(=O)O)C(=O)O)C(=O)N[C@@H](CC(=O)O)C(=O)N[C@@H](Cc1ccccc1)C(=O)N[C@H](C(=O)N[C@@H](CCC(N)=O)C(=O)N[C@@H](Cc1c[nH]c2ccccc12)C(=O)N[C@@H](CC(C)C)C(=O)N[C@@H](CCS(C)(=O)=O)C(=O)N[C@@H](CC(=O)O)C(=O)N[C@H](C(N)=O)[C@@H](C)O)C(C)C
GLP1R EC50 human [1]: 0.45 nM
GCGR EC50 human [2]: 1.08 nM

H[Aib]QGTFTSDYSKYLD[Aib]RAAQFVQ[Phe(4-CH2NH2)]([AEEA-AEEA-γGlu-C16 diacid])WLLATK-{γGlu-NH2} [TP667]
GLP1R EC50 human [1]: > 19.8 nM
GCGR EC50 human [2]: > 19.8 nM

H[Aib]QGTFTSDYSKYLD[Aib]RAAQFVQK([AEEA-AEEA-γGlu-C16 diacid])WLLATK-{γGlu-NH2} [TP666]
GLP1R EC50 human [1]: > 19.8 nM
GCGR EC50 human [2]: > 19.8 nM

B3: TP677 (peptide)
peptide: H[Aib]QGTFTSDYSKYLDARAAK([AEEA-AEEA-AEEA-γGlu-C18 diacid])DFVQWL[Met(O2)][αMeD]T-NH2
modifications: N-terminus assumed
SMILES: CC(C)C[C@H](NC(=O)[C@H](Cc1ccc(O)cc1)NC(=O)[C@H](CCCCN)NC(=O)[C@H](CO)NC(=O)[C@H](Cc1ccc(O)cc1)NC(=O)[C@H](CC(=O)O)NC(=O)[C@H](CO)NC(=O)[C@@H](NC(=O)[C@H](Cc1ccccc1)NC(=O)[C@@H](NC(=O)CNC(=O)[C@H](CCC(N)=O)NC(=O)C(C)(C)NC(=O)[C@@H](N)Cc1c[nH]cn1)[C@@H](C)O)[C@@H](C)O)C(=O)N[C@@H](CC(=O)O)C(=O)N[C@@H](C)C(=O)N[C@@H](CCCNC(=N)N)C(=O)N[C@@H](C)C(=O)N[C@@H](C)C(=O)N[C@@H](CCCCNC(=O)COCCOCCNC(=O)COCCOCCNC(=O)COCCOCCNC(=O)CC[C@H](NC(=O)CCCCCCCCCCCCCCCCC(=O)O)C(=O)O)C(=O)N[C@@H](CC(=O)O)C(=O)N[C@@H](Cc1ccccc1)C(=O)N[C@H](C(=O)N[C@@H](CCC(N)=O)C(=O)N[C@@H](Cc1c[nH]c2ccccc12)C(=O)N[C@@H](CC(C)C)C(=O)N[C@@H](CCS(C)(=O)=O)C(=O)N[C@@](C)(CC(=O)O)C(=O)N[C@H](C(N)=O)[C@@H](C)O)C(C)C
GLP1R EC50 human [1]: 0.76 nM
GCGR EC50 human [2]: 1.42 nM

H[Aib]QGTFTSDYSKYLD[Aib]RAA[Phe(4-CH2NH2)]([AEEA-AEEA-γGlu-C16 diacid])DFVQWLLATK-{γGlu-NH2} [TP663]
GLP1R EC50 human [1]: 0.38 nM
GCGR EC50 human [2]: 0.22 nM

B4: TP675 (peptide)
peptide: H[Aib]QGTFTSDYSKYLD[Aib]RAAQDFVK([AEEA-AEEA-γGlu-C18 diacid])WL[Met(O2)]ET-NH2
modifications: N-terminus assumed
SMILES: CC(C)C[C@H](NC(=O)[C@H](Cc1c[nH]c2ccccc12)NC(=O)[C@H](CCCCNC(=O)COCCOCCNC(=O)COCCOCCNC(=O)CC[C@H](NC(=O)CCCCCCCCCCCCCCCCC(=O)O)C(=O)O)NC(=O)[C@@H](NC(=O)[C@H](Cc1ccccc1)NC(=O)[C@H](CC(=O)O)NC(=O)[C@H](CCC(N)=O)NC(=O)[C@H](C)NC(=O)[C@H](C)NC(=O)[C@H](CCCNC(=N)N)NC(=O)C(C)(C)NC(=O)[C@H](CC(=O)O)NC(=O)[C@H](CC(C)C)NC(=O)[C@H](Cc1ccc(O)cc1)NC(=O)[C@H](CCCCN)NC(=O)[C@H](CO)NC(=O)[C@H](Cc1ccc(O)cc1)NC(=O)[C@H](CC(=O)O)NC(=O)[C@H](CO)NC(=O)[C@@H](NC(=O)[C@H](Cc1ccccc1)NC(=O)[C@@H](NC(=O)CNC(=O)[C@H](CCC(N)=O)NC(=O)C(C)(C)NC(=O)[C@@H](N)Cc1c[nH]cn1)[C@@H](C)O)[C@@H](C)O)C(C)C)C(=O)N[C@@H](CCS(C)(=O)=O)C(=O)N[C@@H](CCC(=O)O)C(=O)N[C@H](C(N)=O)[C@@H](C)O
GLP1R EC50 human [1]: 0.71 nM
GCGR EC50 human [2]: 0.3 nM

B5: TP672 (peptide)
peptide: H[Aib]QGTFTSDYSKYLDARAAK([AEEA-AEEA-γGlu-C18 diacid])DFVQWL[Met(O2)]ET-NH2
modifications: N-terminus assumed
SMILES: CC(C)C[C@H](NC(=O)[C@H](Cc1ccc(O)cc1)NC(=O)[C@H](CCCCN)NC(=O)[C@H](CO)NC(=O)[C@H](Cc1ccc(O)cc1)NC(=O)[C@H](CC(=O)O)NC(=O)[C@H](CO)NC(=O)[C@@H](NC(=O)[C@H](Cc1ccccc1)NC(=O)[C@@H](NC(=O)CNC(=O)[C@H](CCC(N)=O)NC(=O)C(C)(C)NC(=O)[C@@H](N)Cc1c[nH]cn1)[C@@H](C)O)[C@@H](C)O)C(=O)N[C@@H](CC(=O)O)C(=O)N[C@@H](C)C(=O)N[C@@H](CCCNC(=N)N)C(=O)N[C@@H](C)C(=O)N[C@@H](C)C(=O)N[C@@H](CCCCNC(=O)COCCOCCNC(=O)COCCOCCNC(=O)CC[C@H](NC(=O)CCCCCCCCCCCCCCCCC(=O)O)C(=O)O)C(=O)N[C@@H](CC(=O)O)C(=O)N[C@@H](Cc1ccccc1)C(=O)N[C@H](C(=O)N[C@@H](CCC(N)=O)C(=O)N[C@@H](Cc1c[nH]c2ccccc12)C(=O)N[C@@H](CC(C)C)C(=O)N[C@@H](CCS(C)(=O)=O)C(=O)N[C@@H](CCC(=O)O)C(=O)N[C@H](C(N)=O)[C@@H](C)O)C(C)C
GLP1R EC50 human [1]: 0.51 nM
GCGR EC50 human [2]: 0.35 nM

H[Aib]QGTFTSDYSKYLD[Aib]RAAQ[Phe(4-CH2NH2)]([AEEA-AEEA-γGlu-C16 diacid])FVQWLLATK-{γGlu-NH2} [TP665]
GLP1R EC50 human [1]: 1.6 nM
GCGR EC50 human [2]: 0.79 nM

H[Aib]QGTFTSD[Phe(4-CH2NH2)]([AEEA-AEEA-γGlu-C20‑OH])SKYLD[Aib]RAAQDFVQWLLATK-{γGlu-NH2} [TP582]
GLP1R EC50 human [1]: 2.57 nM
GCGR EC50 human [2]: 4.95 nM

H[Aib]QGTFTSD[Phe(4-CH2NH2)]([AEEA-AEEA-γGlu-C20‑OH])SKYLD[Aib]RAAQDFVQWLLATK-{γGlu-NH2} [TP581]
GLP1R EC50 human [1]: 1.69 nM
GCGR EC50 human [2]: 4.95 nM

B6: TP676 (peptide)
peptide: H[Aib]QGTFTSDYSKYLDARAAK([AEEA-AEEA-AEEA-γGlu-C18 diacid])DFVQWL[Met(O2)]DT-NH2
modifications: N-terminus assumed
SMILES: CC(C)C[C@H](NC(=O)[C@H](Cc1ccc(O)cc1)NC(=O)[C@H](CCCCN)NC(=O)[C@H](CO)NC(=O)[C@H](Cc1ccc(O)cc1)NC(=O)[C@H](CC(=O)O)NC(=O)[C@H](CO)NC(=O)[C@@H](NC(=O)[C@H](Cc1ccccc1)NC(=O)[C@@H](NC(=O)CNC(=O)[C@H](CCC(N)=O)NC(=O)C(C)(C)NC(=O)[C@@H](N)Cc1c[nH]cn1)[C@@H](C)O)[C@@H](C)O)C(=O)N[C@@H](CC(=O)O)C(=O)N[C@@H](C)C(=O)N[C@@H](CCCNC(=N)N)C(=O)N[C@@H](C)C(=O)N[C@@H](C)C(=O)N[C@@H](CCCCNC(=O)COCCOCCNC(=O)COCCOCCNC(=O)COCCOCCNC(=O)CC[C@H](NC(=O)CCCCCCCCCCCCCCCCC(=O)O)C(=O)O)C(=O)N[C@@H](CC(=O)O)C(=O)N[C@@H](Cc1ccccc1)C(=O)N[C@H](C(=O)N[C@@H](CCC(N)=O)C(=O)N[C@@H](Cc1c[nH]c2ccccc12)C(=O)N[C@@H](CC(C)C)C(=O)N[C@@H](CCS(C)(=O)=O)C(=O)N[C@@H](CC(=O)O)C(=O)N[C@H](C(N)=O)[C@@H](C)O)C(C)C
GLP1R EC50 human [1]: 0.26 nM
GCGR EC50 human [2]: 0.82 nM
